{
  "source": "the nanobody polyreactivity screen of Harvey et al. (2022)",
  "data": [
    {"test": "yeast display, Sf9 membrane polyspecificity reagent, FACS + sequencing; frameworks hold sequencing errors", "how_it_was_run": "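Synthetic nanobody libraries on Saccharomyces cerevisiae BJ5465 were galactose-induced for 36–48 hours, stained 1 hour at 4 °C with 10% biotinylated, detergent-solubilized Sf9 membrane reagent and enriched on streptavidin microbeads. FACS then separated cells into low and high (top ~1%) gates by anti-HA (expression) and streptavidin (reagent binding) fluorescence. Genes were colony-PCR amplified, MiSeq 2 × 250 sequenced and CDR-length filtered. A clone's polyreactivity label is that of its gate of origin.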", "values": [
      {"sequence": "QVQLVESGGGLVQAGGSLRLSCAASGSIFPPNAMGWYRQAPGKERELVAGISQSGGSTYYADSVKGRFTISRDNAKNTVYLQMNSLKPEDTAVYYCARSFYSGRRYYYWGQGTQVTVSS", "polyreactivity (PSR sort gate)": "high polyreactivity"},
      {"sequence": "QVQLVESGGGLVQAGGSLRLSCAASGSIFPPYAMGWYRQAPGKERELVATITIRGGSTYYADSVKGRFTISRDNAKNTVYLQMNSLKREDTAVYYCAADYTKYYRRYYYWGQGTQVTVSS", "polyreactivity (PSR sort gate)": "high polyreactivity"},
      {"sequence": "QVQLVESGGGLVQAGGSLRLSCAASGSIFPPYVMGWYRPAPGKERELVAAINYIGDSTYADSVKGRFTISRDNAKNTVYLQINSLKPEDTAVYYCAAELWSGGVYSGFEEYWGQGTQVTVSS", "polyreactivity (PSR sort gate)": "high polyreactivity"},
      {"sequence": "QVQLVESGGGLVQAGGSLRLSCAASGSIFPQNAMGWYRQAPGKERELVASITSRGGITNYADSVKGRFTISRDNAKNTVYLQMNSLKPEDSAVYYCAADLYIYPYDYWGQGTQVTVSS", "polyreactivity (PSR sort gate)": "low polyreactivity"},
      {"sequence": "QVQLVESGGGLVQAGGSLRLSCAASGSIFPQYAMGWYRQAPGTERELVAAISSSGGRTYYADSVKGRFTISRDNAKYTVYLQMNSLKPEDTAVYYCITRWRSRYGYGDQSEDYWGQGTQVTVSS", "polyreactivity (PSR sort gate)": "high polyreactivity"},
      {"sequence": "QVQLVESGGGLVQAGGSLRLSCAASGSIFPRNAMGWYRQAPGKERELVAAITTTGGITHYADSVKGRFTISRDNAKNTVYLQMNSLKPEDTAVYYCAASNEVPWRFPDDYWGQGTQVTVSA", "polyreactivity (PSR sort gate)": "low polyreactivity"},
      {"sequence": "QVQLVESGGGLVQAGGSLRLSCAASGSIFPRNTMGWYRQAPGKERELVAAMSSGASTYYADSVKGRFTISRDNAKNTVYLQMNSLKPEDTAVYYCAKRYQDTSPKDGENEYWGQGTQVTVSS", "polyreactivity (PSR sort gate)": "low polyreactivity"},
      {"sequence": "QVQLVESGGGLVQAGGSLRLSCAASGSIFPRYAMGWYRQAPGKERELVAAINSGGSTNYADSVKGRFTISRDNAKNTVYLQMHSLKPEDTAVYYCNAVFISYSYRRGPTLYVYWGQGTQVTVSS", "polyreactivity (PSR sort gate)": "high polyreactivity"},
      {"sequence": "QVQLVESGGGLVQAGGSLRLSCAASGSIFPSNAMGWYRQAPGKERELVAAINRDGITNYADSVKGRFTISRDNAKNTVYLQMNSLKPEDTAVYYCAAEFAWQWWEYGYWGQGSQVTVSS", "polyreactivity (PSR sort gate)": "low polyreactivity"},
      {"sequence": "QVQLVESGGGLVQAGGSLRLSCAASGSIFPSYAMGWYRQAPGKDRELVATLGRGGTTNYADSVKGRFTLSRDNAKNTVYIQMNSLKPEDTAVYYCNAERIWRYKDGYDYWGQGTQVTVSS", "polyreactivity (PSR sort gate)": "high polyreactivity"},
      {"sequence": "QVQLVESGGGLVQAGGSLRLSCAASGSIFPSYARGWDRKAPGKERELVAAISSSGGSTYYADSVKGRFTISRDNAKNTVYLQMNSLKPEDTAVYYCATRYRRWSTVVQDDYWGQGTQVTVSS", "polyreactivity (PSR sort gate)": "low polyreactivity"},
      {"sequence": "QVQLVESGGGLVQAGGSLRLSCAASGSIFPSYSMGWYRQAPGKERELVAVISVSGGRTYYADSVKGRFTISRDNAKNTVYLQMKSLKPEDTAVYYCAKDRPQEYDYWGQGTQVTVSS", "polyreactivity (PSR sort gate)": "low polyreactivity"},
      {"sequence": "QVQLVESGGGLVQAGGSLRLSCAASGSIFPVNAMGWYRQAPGKEREFVAAINVIGGSTYYADSVKGRFTISRDNAKNTVYLQMNSLKPEVTAVYYCAVEGYSILFGMDYLGQGTQVTVSS", "polyreactivity (PSR sort gate)": "low polyreactivity"},
      {"sequence": "QVQLVESGGGLVQAGGSLRLSCAASGSIFPVNAMGWYRQAPGKERELVAAISEGSTSTYYADSVKGRFTISRDNAKNTVYLQMNSLKPEDTAVYYCAADYDTGYEYWGQGTQVTVSS", "polyreactivity (PSR sort gate)": "low polyreactivity"},
      {"sequence": "QVQLVESGGGLVQAGGSLRLSCAASGSIFPVYTMGWYRQAPGKEREFVATITISGAITYYADSVKGRFTISRDNAKNTVYLQMTSLKPEDTAVYYCNTGPMYFPANDYWGQGTQVTVSS", "polyreactivity (PSR sort gate)": "low polyreactivity"},
      {"sequence": "QVQLVESGGGLVQAGGSLRLSCAASGSIFPWNAMGWYRQAPGKERELVAGINESGGSTYYADSVKGRFTISRDNAKNTVYLQMNSLKPEDTAVYYCAADGYPSVGDDYWGQGTQVTVSS", "polyreactivity (PSR sort gate)": "low polyreactivity"},
      {"sequence": "QVQLVESGGGLVQAGGSLRLSCAASGSIFPWYAMGWYRQAPGKERELVAAITISGGSTHYADSVKGRFTISRDNAKNTVYLQMNRLKPEDTAVYYCATPRYPSYDYWGQGTQVTVSS", "polyreactivity (PSR sort gate)": "low polyreactivity"},
      {"sequence": "QVQLVESGGGLVQAGGSLRLSCAASGSIFPYNAMGWYRQAPGEFVAAISYSSGSTYYADSVKGRFTISRDNAKNTVYLQMNSLKPEDTAVYYCAAGSWYPPSYVWLGRYDYWGQGTQVTVSS", "polyreactivity (PSR sort gate)": "low polyreactivity"},
      {"sequence": "QVQLVESGGGLVQAGGSLRLSCAASGSIFPYNDMGWYRQAPGKERELVAAISDSAGSTYYADSVKGRFTISRDNAKNTVYLQMNSLKPEYTAVYYCADYDYWGQGTQVTVSS", "polyreactivity (PSR sort gate)": "low polyreactivity"},
      {"sequence": "QVQLVESGGGLVQAGGSLRLSCAASGSIFPYNPMGWYRQAPGEFGAAISYSSGSTYYADSVKGRFTISRDNAKNTVYLQMNSLKPEDTAVYYCAAGLPKYEHEYWGQVTQVTVSS", "polyreactivity (PSR sort gate)": "low polyreactivity"},
      {"sequence": "QVQLVESGGGLVQAGGSLRLSCAASGSIFPYYAMGGYRQAAGKERELVATITSRGGSTDYADYVKGRFTISRDNAKNTVYLQMNSLKREDTAVYYCAKEYRYYRRRYDYWGQGTQVTVSS", "polyreactivity (PSR sort gate)": "high polyreactivity"},
      {"sequence": "QVQLVESGGGLVQAGGSLRLSCAASGSIFPYYAMGWYRQAPGKERDLVAAISWSGTSTYYADSLKGRFTISRDNAKNTVYLQMNSLNPEDTAVYYCAASGVGTNHYGYWNESDYWGQGTQVTVSS", "polyreactivity (PSR sort gate)": "low polyreactivity"},
      {"sequence": "QVQLVESGGGLVQAGGSLRLSCAASGSIFPYYAMGWYRQAPGKERELVAAINWSGDSTYYADSVKGRFTISRDNAKNTVYLQMNSLKPEDTAVYYCAARSRWRYDYWGQGTQVTVSS", "polyreactivity (PSR sort gate)": "low polyreactivity"},
      {"sequence": "QVQLVESGGGLVQAGGSLRLSCAASGSIFPYYAMGWYRQAPGKERELVAAITWSGGGTYYADSVKGRFTISRDNAKNTGYLQMNSLKPEDTAVYYCAASYRYYWFDYWGQGTQVTVSS", "polyreactivity (PSR sort gate)": "high polyreactivity"},
      {"sequence": "QVQLVESGGGLVQAGGSLRLSCAASGSIFPYYAMGWYRQAPGKERELVAGISRRGGTTYYADSVKGRFTISRDNAKNTVYLQMNSLKPEDTAVYYCAARYGPYVDRYGYWGQGTQVTVSS", "polyreactivity (PSR sort gate)": "high polyreactivity"},
      {"sequence": "QVQLVESGGGLVQAGGSLRLSCAASGSIFPYYAMGWYRQAPGKERELVATISSGGSTFYADSVKGRFTISRDNAKKTVYLQMNSLKPEDTAVYYCAADIWYFDYDYWGQGTQVTVSS", "polyreactivity (PSR sort gate)": "high polyreactivity"},
      {"sequence": "QVQLVESGGGLVQAGGSLRLSCAASGSIFPYYAMGWYRQAPGKERELVATITSRGGSTYYADSVKGRFTISRDNAKNTVYLQMNSLKPEDTAVYYCAKEYRYYRRRYDYWGQGTQVTVSS", "polyreactivity (PSR sort gate)": "high polyreactivity"},
      {"sequence": "QVQLVESGGGLVQAGGSLRLSCAASGSIFPYYDMGWYRQAPGKERELVAAITSSGSTFYADSVKGRFTISRDNAKNTVYLQMNSLKPEVTAVYSCNTRDIRVRPYDYWGQGTQVTVSS", "polyreactivity (PSR sort gate)": "low polyreactivity"},
      {"sequence": "QVQLVESGGGLVQAGGSLRLSCAASGSIFQFNAMGWYIQAPGKERELVAAISRRTGSTYYADSVKGRFTISRDNAKNTVYLQMNSLKPEDTAVYYCAAKGYGSAPTYRHNYWGQGTQVTISS", "polyreactivity (PSR sort gate)": "high polyreactivity"},
      {"sequence": "QVQLVESGGGLVQAGGSLRLSCAASGSIFQFSAMGWYRQAPGKERPLVAAISDRGGSTYYADSVKGRFTISRDNAKNTVYLLMNSLKPEDTAVYYCAKGGEVSQGYTDEYDYWGQGTQVTVSS", "polyreactivity (PSR sort gate)": "low polyreactivity"},
      {"sequence": "QVQLVESGGGLVQAGGSLRLSCAASGSIFQGNAKGGYRQAPGKERELVAGISDGGSTYYADSVKGRFTISRDNAKNTVYLQMNSLKPEDTAVYYCAAESEQWYSYVLSYDWEYDYWGQGTQVTVSS", "polyreactivity (PSR sort gate)": "low polyreactivity"},
      {"sequence": "QVQLVESGGGLVQAGGSLRLSCAASGSIFQGYAMGWYRQAPGKERELVAAITASGGSTYYADSVKRRFTISRDNAKNTVYLQMNSLKPEDTAVYYCATDSYWRQDLYRYEYWGQGTQVTVSS", "polyreactivity (PSR sort gate)": "high polyreactivity"},
      {"sequence": "QVQLVESGGGLVQAGGSLRLSCAASGSIFQGYAMGWYRQAPGKERELVARITSDDDSTYYADSVKGRFTISRDNAKITVYLQMNSLKPEDTAVYYCNADYYWTSLAMDSWGQGTKVTVSS", "polyreactivity (PSR sort gate)": "low polyreactivity"},
      {"sequence": "QVQLVESGGGLVQAGGSLRLSCAASGSIFQPYAMGWYRQAPGKERELVAAINGRGGSTHYADSVKGRFTISRDNAKNTVYLQMNSLKPEDTAVYYCAATWAYPGSGYVYFYGNDYWGQGTQVTVSS", "polyreactivity (PSR sort gate)": "high polyreactivity"},
      {"sequence": "QVQLVESGGGLVQAGGSLRLSCAASGSIFQPYAMGWYRQAPGKERELVAAISSSGGSTTYADSVKGRFTISRDNAKNTVYLQMNSLKPEDTAVYYCAAQYRYYPEAYGMGYWGQGTQVTVSS", "polyreactivity (PSR sort gate)": "low polyreactivity"},
      {"sequence": "QVQLVESGGGLVQAGGSLRLSCAASGSIFQPYGMGWYRQAPGKERELVASIRGSAGSTHYADSVKGRFTISRDNAKYTVYLQMNSLKPEDTAVDYCAARAVASHFSPSLYGYWGHGTQVTVSS", "polyreactivity (PSR sort gate)": "high polyreactivity"},
      {"sequence": "QVQLVESGGGLVQAGGSLRLSCAASGSIFQQYAMGWYRQAPGKERELVAAISWGDGSTYYADSVKGRFTISRDNAKNTVYLQKNSLKPEDTAVYYCNAYASAPLWSLEDDYWGQGTQVTVSS", "polyreactivity (PSR sort gate)": "low polyreactivity"},
      {"sequence": "QVQLVESGGGLVQAGGSLRLSCAASGSIFQQYAMGWYRQAPGKERELVAAITYSGDGTYYADSVKGRFTISRDNAKNTVYLQMNSLKPEDTAVYYCAAYPRDPYKEYDYWGQGNQVTVSS", "polyreactivity (PSR sort gate)": "low polyreactivity"},
      {"sequence": "QVQLVESGGGLVQAGGSLRLSCAASGSIFQRYAMGWYRQAPGKERELVAAISGSGGRTYYADSVKGRFTISRDNAKNTVYLQMNSLKPEDTAVYYCAKDFRLRGGYDYWGQGTQVTVSS", "polyreactivity (PSR sort gate)": "high polyreactivity"},
      {"sequence": "QVQLVESGGGLVQAGGSLRLSCAASGSIFQRYTMGWYRQAPGKERELVARISGRGGSTYYADSVKGRFTISRDNAKNTVYLQMNSMKPEDTAVYYCAADTGRYLDSNYWGQGTQVTVSS", "polyreactivity (PSR sort gate)": "high polyreactivity"},
      {"sequence": "QVQLVESGGGLVQAGGSLRLSCAASGSIFQSNAMGWYRQAPAKESELVAAISSSGGRTYYADSVKGRFTISRDNAKNTVYFQMNSLKPEDTAVYYCAALGYPDGGWGLGTQVTVSS", "polyreactivity (PSR sort gate)": "low polyreactivity"},
      {"sequence": "QVQLVESGGGLVQAGGSLRLSCAASGSIFQSYAMGWYIQAPGKERELVAAISARGGTTNYADSVKGRFTISRDNAKNTVYLQMNSLKPEDTAVYYCAKVYRYGYSKYYYWGQGTQVTVSS", "polyreactivity (PSR sort gate)": "high polyreactivity"},
      {"sequence": "QVQLVESGGGLVQAGGSLRLSCAASGSIFQVYAMGWYRQAPGKEREFVAAISYSGGGTYYADSVKGRFTISRDNAKNTVFLQMNSLKPEDTAVYYCAADVSGWEYDFWGLGTQVTVSS", "polyreactivity (PSR sort gate)": "low polyreactivity"}
    ]}
  ]
}
